Assay results reported in US20150098900A1 (Genentech, published 2015).

What was measured:
[1] = target: T1, human FcRH2 with N-terminal gD-expression tag on SVT2 cells (human, UniProt Q96LA5 20-508); experiment: FACS, SVT2 cells with gD-tagged FcRH2, subclone supernatants, anti-mouse PE
T1 construct: whole, on cells; also called SVT2/FcRH2
T1 sequence (looked up): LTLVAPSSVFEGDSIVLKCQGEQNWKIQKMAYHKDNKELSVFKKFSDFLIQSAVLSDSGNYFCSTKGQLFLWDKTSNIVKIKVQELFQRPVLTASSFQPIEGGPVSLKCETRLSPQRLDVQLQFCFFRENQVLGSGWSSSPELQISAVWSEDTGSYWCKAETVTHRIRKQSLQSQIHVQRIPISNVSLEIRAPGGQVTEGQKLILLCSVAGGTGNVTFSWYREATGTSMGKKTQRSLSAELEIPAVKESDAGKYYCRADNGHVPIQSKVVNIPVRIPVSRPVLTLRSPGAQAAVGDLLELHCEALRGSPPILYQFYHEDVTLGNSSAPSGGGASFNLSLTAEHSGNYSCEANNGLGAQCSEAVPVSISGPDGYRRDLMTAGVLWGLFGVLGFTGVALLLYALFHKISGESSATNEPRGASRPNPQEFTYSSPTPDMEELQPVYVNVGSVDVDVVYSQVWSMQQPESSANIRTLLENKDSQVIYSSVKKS
Excerpt: Fc receptor homolog (FcRH) family molecules have a high degree of homology to one another (Miller et al., 2002). The homology is especially high between the membrane proximal domains, which the E11 antibodies target (Miller et al., 2002). To investigate the cross reactivity to family members, FcRH1, FcRH2, FcRH3 and FcRH4 (all including an N-terminal gD-expression tag) were expressed in SVT2 cells and cells were stained with subclone supernatants and goat anti-mouse-PE secondary antibody. Expression of the transfected FcRH was confirmed by a signal from anti-gD antibody in all cell lines. […] Overall, the signals from FcRH3-expressing SVT2 cells were low, including the gD control antibody, indicative of low expression level. Low level of binding to FcRH3-expressing SVT2 cells was detected for 1F4 and 4H8 supernatants (FIG. 6C).

[2] = target: T2, human FcRH5c (full length human FcRH5) (human, UniProt Q96RD9 16-977); experiment: FACS, APC-labelled antibodies on SVT2 cells with full-length human FcRH5
T2 construct: Used on transfected SVT2, 293, EJM and OPM2 cells and endogenously on MOLP-2 cells and CD19+ B cells; also called IRTA2c; huFcRH5
T2 sequence: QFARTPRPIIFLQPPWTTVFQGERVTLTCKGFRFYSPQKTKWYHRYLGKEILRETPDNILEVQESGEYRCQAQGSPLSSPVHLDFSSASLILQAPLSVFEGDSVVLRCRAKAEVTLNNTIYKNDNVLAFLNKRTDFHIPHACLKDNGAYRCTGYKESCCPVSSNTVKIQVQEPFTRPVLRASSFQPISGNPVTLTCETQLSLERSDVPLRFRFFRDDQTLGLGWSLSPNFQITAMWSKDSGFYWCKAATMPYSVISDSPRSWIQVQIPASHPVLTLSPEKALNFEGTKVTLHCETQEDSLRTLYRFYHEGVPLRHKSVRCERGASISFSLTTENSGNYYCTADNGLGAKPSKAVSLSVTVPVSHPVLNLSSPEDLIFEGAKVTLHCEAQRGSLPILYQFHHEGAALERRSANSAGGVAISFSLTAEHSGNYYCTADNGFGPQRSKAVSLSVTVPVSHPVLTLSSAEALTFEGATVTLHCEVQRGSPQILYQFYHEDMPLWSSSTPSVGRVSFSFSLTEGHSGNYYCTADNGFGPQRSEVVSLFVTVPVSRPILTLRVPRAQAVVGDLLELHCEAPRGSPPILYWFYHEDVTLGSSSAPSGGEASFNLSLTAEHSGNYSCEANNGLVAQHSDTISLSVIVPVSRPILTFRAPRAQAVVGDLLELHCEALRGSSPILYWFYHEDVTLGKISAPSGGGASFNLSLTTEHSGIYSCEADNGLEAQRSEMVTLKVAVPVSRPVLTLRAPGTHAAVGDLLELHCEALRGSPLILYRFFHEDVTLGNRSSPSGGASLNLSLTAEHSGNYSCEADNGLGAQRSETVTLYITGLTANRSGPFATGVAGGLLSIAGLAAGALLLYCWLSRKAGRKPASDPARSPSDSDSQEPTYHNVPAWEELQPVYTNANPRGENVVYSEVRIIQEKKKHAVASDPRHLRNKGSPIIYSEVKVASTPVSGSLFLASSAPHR

B1: 3B12.1.1 (antibody, IgG2b, V domains shown)
VH: EVQLQQSGPELVKPGASVKISCKTSGYTFTEYTIHWVKQSHGKSLERIGGINPNNDAVSYNQRFRGKATLTVDKSSSTAYMELRSLTSEDSAVYYCAKLGRGYYFDYWGQGTTLTVSSASTKGPSVFPLAP
VL: DIQMTQSPASLSASVGETVTITCRASENIYSNLAWYQLKQGKSPQLLVYGAANLAEGVPSRISGSGSGTQYSLKINSLQSEDFGTYYCQHFWGIPWTFGGGTKLEIKRTVAA
notes: parent 3B12 and subclone 3B12.1 treated as the same antibody; also called 3B12.1.mIgG2b
[1]
  binding result: no binding
[2]
  binding result: binds
